This is an account of results in US8987192B2, “Potent and selective mediators of cholesterol efflux” (The Regents of the University of California, priority 2006, dated 2015).

First the molecules themselves.
B1: S26>Y analog of the polypeptide of SEQ ID NO:4 (peptide)
peptide: EVRSKLEEWFAAFREFAEEFLARLKY
B2: polypeptide of SEQ ID NO:4 composed of all D-amino acids (peptide)
peptide: [dE][dV][dR][dS][dK][dL][dE][dE][dW][dF][dA][dA][dF][dR][dE][dF][dA][dE][dE][dF][dL][dA][dR][dL][dK][dS]
B3: E1, 7, 8, 15, 18, 19>D analog of the polypeptide of SEQ ID NO:5 (peptide)
peptide: DVRSKLDDWFAAFRDFFDDFLARLKS
B4: inverted sequence peptide of SEQ ID NO:20, all D-amino acids (peptide)
peptide: [dS][dK][dL][dR][dA][dL][dF][dE][dE][dA][dF][dE][dR][dF][dA][dA][dF][dW][dE][dE][dL][dK][dS][dR][dV][dE]
B5: R3, 14, 23→K3, 14, 23 analog of the polypeptide of SEQ ID NO:5 (peptide)
peptide: EVKSKLEEWFAAFKEFFEEFLAKLKS
B6: 24-mer polypeptide of SEQ ID NO:5 lacking Lys25-Ser26 (peptide)
peptide: EVRSKLEEWFAAFREFFEEFLARL
B7: E8, 15>D analog of the polypeptide of SEQ ID NO:5 (peptide)
peptide: EVRSKLEDWFAAFRDFFEEFLARLKS
B8: inverted sequence peptide of SEQ ID NO:20, all L-amino acids (peptide)
peptide: SKLRALFEEAFERFAAFWEELKSRVE
B9: 24-mer core peptide of SEQ ID NO:4 with the S4>A substitution (peptide)
peptide: EVRAKLEEWFAAFREFAEEFLARL
B10: S4, 26>A analog of the polypeptide of SEQ ID NO:4 (peptide)
peptide: EVRAKLEEWFAAFREFAEEFLARLKA

“Also recorded” adds a separate entry of the source. Where no end group is shown, it is not given here. [ ]: non-standard residue; d: D form.

In the first data set the target is ABCA1 of J774 mouse macrophages (mouse, UniProt P41233 1-2261). Kind of data set: cell-based or functional assay.
Sequence of ABCA1 of J774 mouse macrophages (P41233 whole entry): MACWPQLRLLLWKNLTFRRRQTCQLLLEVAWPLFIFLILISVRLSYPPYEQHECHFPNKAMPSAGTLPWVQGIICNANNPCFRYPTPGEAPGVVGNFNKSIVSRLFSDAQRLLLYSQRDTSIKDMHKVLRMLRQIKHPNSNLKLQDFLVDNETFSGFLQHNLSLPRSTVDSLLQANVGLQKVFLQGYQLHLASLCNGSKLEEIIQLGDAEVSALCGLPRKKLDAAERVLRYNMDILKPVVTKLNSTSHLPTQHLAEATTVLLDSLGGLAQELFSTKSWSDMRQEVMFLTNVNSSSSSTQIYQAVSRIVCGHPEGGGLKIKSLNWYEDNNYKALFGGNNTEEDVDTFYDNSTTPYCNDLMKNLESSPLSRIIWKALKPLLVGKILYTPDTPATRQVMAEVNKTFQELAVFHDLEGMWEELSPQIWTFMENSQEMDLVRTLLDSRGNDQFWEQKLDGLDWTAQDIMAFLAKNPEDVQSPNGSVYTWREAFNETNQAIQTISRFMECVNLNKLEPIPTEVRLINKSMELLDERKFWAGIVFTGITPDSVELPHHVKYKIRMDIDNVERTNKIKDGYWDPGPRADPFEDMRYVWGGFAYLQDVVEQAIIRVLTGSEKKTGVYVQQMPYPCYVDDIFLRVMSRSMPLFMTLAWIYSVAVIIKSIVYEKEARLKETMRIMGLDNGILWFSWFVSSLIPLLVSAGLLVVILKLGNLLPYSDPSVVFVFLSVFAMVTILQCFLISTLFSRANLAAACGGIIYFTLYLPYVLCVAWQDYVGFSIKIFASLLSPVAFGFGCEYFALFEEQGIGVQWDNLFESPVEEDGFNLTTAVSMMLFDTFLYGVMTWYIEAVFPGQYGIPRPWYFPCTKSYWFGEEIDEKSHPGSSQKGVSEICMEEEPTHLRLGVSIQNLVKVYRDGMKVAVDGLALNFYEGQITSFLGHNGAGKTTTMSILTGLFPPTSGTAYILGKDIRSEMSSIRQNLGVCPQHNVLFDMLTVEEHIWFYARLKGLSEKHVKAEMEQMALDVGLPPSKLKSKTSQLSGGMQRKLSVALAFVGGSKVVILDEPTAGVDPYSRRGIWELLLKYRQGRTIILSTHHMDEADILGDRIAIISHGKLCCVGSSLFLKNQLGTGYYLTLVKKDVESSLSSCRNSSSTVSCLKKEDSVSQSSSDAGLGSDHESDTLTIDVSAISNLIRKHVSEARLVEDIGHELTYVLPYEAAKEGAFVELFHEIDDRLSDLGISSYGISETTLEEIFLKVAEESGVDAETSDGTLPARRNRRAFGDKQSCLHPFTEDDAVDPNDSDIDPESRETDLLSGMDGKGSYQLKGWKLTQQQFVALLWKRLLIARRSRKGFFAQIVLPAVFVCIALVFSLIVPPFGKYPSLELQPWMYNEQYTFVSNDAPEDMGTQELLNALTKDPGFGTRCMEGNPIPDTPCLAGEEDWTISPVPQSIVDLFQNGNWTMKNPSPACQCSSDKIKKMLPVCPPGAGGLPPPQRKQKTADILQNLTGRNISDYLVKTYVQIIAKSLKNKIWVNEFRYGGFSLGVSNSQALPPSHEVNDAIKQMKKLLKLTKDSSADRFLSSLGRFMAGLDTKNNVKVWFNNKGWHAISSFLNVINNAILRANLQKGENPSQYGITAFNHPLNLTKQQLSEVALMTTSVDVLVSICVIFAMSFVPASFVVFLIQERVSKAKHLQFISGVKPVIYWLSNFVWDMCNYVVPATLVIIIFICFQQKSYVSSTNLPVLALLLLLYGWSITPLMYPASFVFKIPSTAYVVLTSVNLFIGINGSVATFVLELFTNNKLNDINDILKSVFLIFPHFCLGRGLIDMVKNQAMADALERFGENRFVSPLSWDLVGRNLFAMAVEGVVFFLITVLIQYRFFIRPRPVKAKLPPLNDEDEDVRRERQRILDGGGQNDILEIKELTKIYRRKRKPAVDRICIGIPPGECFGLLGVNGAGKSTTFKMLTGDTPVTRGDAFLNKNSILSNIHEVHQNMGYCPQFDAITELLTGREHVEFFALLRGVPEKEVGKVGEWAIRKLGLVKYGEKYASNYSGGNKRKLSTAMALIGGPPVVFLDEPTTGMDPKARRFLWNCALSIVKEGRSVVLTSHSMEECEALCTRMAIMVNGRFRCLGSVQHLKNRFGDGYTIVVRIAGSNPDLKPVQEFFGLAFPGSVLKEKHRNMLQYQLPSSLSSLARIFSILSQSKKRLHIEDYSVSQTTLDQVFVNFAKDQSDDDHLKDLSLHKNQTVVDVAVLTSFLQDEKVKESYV
Conditions: not given
With B1, the “cholesterol efflux: concentration giving maximal efflux” value was 3 µg/mL.

Take B2: the “cholesterol efflux: concentration giving maximal efflux” value is 3 µg/mL. In the case of B3, the “cholesterol efflux: concentration giving maximal efflux” value was found to be 3 µg/mL. As for B4, the “cholesterol efflux: concentration giving maximal efflux” value is 3 µg/mL.

In the case of B5, the “cholesterol efflux: concentration giving maximal efflux” value turned out to be 3 µg/mL. Still for that read-out and setting: then B6, with 3 µg/mL; and B7, with 3 µg/mL; and B8, with 3 µg/mL. Same read-out and setting: then B9, with 3 µg/mL; and B10, with 3 µg/mL.

Tested on in a further data set: not given
Test: not given
Particulars: scaled values = (raw log(P) + 2.061)/4.484; cited from earlier work.
As to `C[C@@H](O)[C@H](N)C(=O)O` [Threonine], the Hydrophobicity is on record as 0.450. On to `CSCC[C@H](N)C(=O)O` [Methionine], for which the Hydrophobicity is given as 0.738. As for `O=C(O)[C@@H]1CCCN1` [Proline], the Hydrophobicity is given as 0.711. For the molecule `N[C@@H](CCC(=O)O)C(=O)O` [Glutamate], the Hydrophobicity was 0.043. With `NC(=O)C[C@H](N)C(=O)O` [Asparagine], the Hydrophobicity is recorded as 0.236. Turning to `N[C@@H](Cc1c[nH]c2ccccc12)C(=O)O` [Tryptophan], the Hydrophobicity was 0.878. `NCCCC[C@H](N)C(=O)O` [Lysine]: the Hydrophobicity was 0.283.

For the molecule `N[C@@H](Cc1ccc(O)cc1)C(=O)O` [Tyrosine], the Hydrophobicity is reported as 0.880. With `C[C@H](N)C(=O)O` [Alanine], the Hydrophobicity is reported as 0.616. As for `CC(C)[C@H](N)C(=O)O` [Valine], the Hydrophobicity is 0.825.

As for `N[C@@H](Cc1ccccc1)C(=O)O` [Phenylalanine], the Hydrophobicity is on record as 1.00.

As to `N[C@@H](Cc1c[nH]cn1)C(=O)O` [Histidine], the Hydrophobicity is given as 0.165. Turning to `NCC(=O)O` [Glycine], the Hydrophobicity was 0.501. For the molecule `N=C(N)NCCC[C@H](N)C(=O)O` [Arginine], the Hydrophobicity is 0.000.

As to `CC[C@H](C)[C@H](N)C(=O)O` [Isoleucine], the Hydrophobicity is listed as 0.943.

The target of the next data set is ABCA1 (Mus musculus, UniProt P41233). Kind of data set: Cholesterol efflux from [3H]cholesterol-labeled ABCA1-expressing J774 mouse macrophages. It counts as cell-based. Also noted: to upregulate cellular ABCA1 protein; endogenous in cells; host or cells: J774 mouse macrophages. The following applies: 3 μg/ml lipid-free peptide, ABCA1-expressing macrophages. Here is the method: In some embodiments, a polypeptide known to mediate cholesterol efflux (e.g., helix 9/10 of Apo A-I) is used to screen for additional mediators of cholesterol efflux in a cell based assay. For example, cell lines in which cholesterol efflux can be enhanced using a cAMP analog that up-regulates ABCA1 protein expression (e.g., J774 macrophages) can conveniently be used to assess the ability of a polypeptide of the present invention to mediate cholesterol efflux. The cells are incubated with labeled cholesterol (e.g., [^3H]cholesterol) under conditions appropriate for cholesterol uptake by the cells. Thus, cAMP or cAMP analogs (e.g., CPT-cAMP) are incubated with the cells for a suitable time before the initiation of cellular cholesterol efflux, i.e., prior to contacting the cells with a test polypeptide. Measurement of labeled cholesterol appearing in the medium is used to determine the cholesterol efflux mediating activity of the test polypeptide.
Sequence of ABCA1 (P41233 whole entry): as above
J774 mouse macrophages labeled with [^3H]cholesterol were treated (20 h) with 22-hydroxycholesterol (10 μM)/cis-retinoic acid (10 μM) to upregulate cellular ABCA1 protein.
Mouse macrophages were labeled with [^3H]cholesterol and treated with a cAMP analog to induce ABCA1 expression. […] Km values were calculated using the Michaelis-Menton equation and GraphPad Prism4 software.
Inverted sequence peptides synthesized with all L-amino acids and all D-amino acids were tested for cholesterol efflux activity using ABCA1 expressing J774 macrophages.
Two peptide analogs were engineered; the first replacing glutamic acid residues (E) at position 8 and 15 with aspartic acid residues (D), i.e., E8, 15>D polypeptides, and the second, replacing E1, 7, 8, 15, 18, 19 with D, i.e., all D (Asp) polypeptide. Cholesterol efflux activity was determined using J774 macrophages treated with and without a cAMP analog to modulate ABCA1 expression.
The impact of the A12>L substitution was also tested for activity, which also expanded non-polar surface area.
1-palmitoyl-2-oleoyl-phosphatidylcholine (POPC) was used to evaluate the cholesterol efflux properties of a formulated polypeptide of the present invention. […] To test cholesterol efflux activity, J774 mouse macrophages were labeled with [^3H]cholesterol and treated with and without cAMP to modulate ABCA1 expression.
Regarding “25-mer: SEQ ID NO:5 lacking the C-terminal Ser26 (EVRSKLEEWFAAFREFFEEFLARLK; S1 amphipathic alpha-helix polypeptide core sequence selectively binds HDL, high-affinity ligand for ATP- binding cassette transporter A1 (ABCA1), ABCA1-lipid cholesterol efflux, ABCA1-stablization, anti-oxidant and anti-inflammatory activity)”, the “capacity to stimulate cholesterol efflux at 3 μg/ml” value is listed as “retained high capacity to stimulate cholesterol efflux; also recorded: retained high activity”.

Still in this data set, the particulars now being: 30 μg/ml peptide.
As for “R3→Q: SEQ ID NO:5 with arginine 3 replaced by glutamine (EVQSKLEEWFAAFREFFEEFLARLKS; S1 amphipathic alpha-helix polypeptide core sequence selectively binds HDL, high-affinity ligand for ATP- binding cassette transporter A1 (ABCA1), ABCA1-lipid cholesterol efflux, ABCA1-stablization, anti-oxidant and anti-inflammatory activity)”, the “ABCA1-dependent cholesterol efflux at 30 μg/ml” value was “mediated cholesterol efflux in an ABCA1 dependent manner”. Same read-out and setting: with “R14→Q: SEQ ID NO:5 with arginine 14 replaced by glutamine (EVRSKLEEWFAAFQEFFEEFLARLKS; S1 amphipathic alpha-helix polypeptide core sequence selectively binds HDL, high-affinity ligand for ATP- binding cassette transporter A1 (ABCA1), ABCA1-lipid cholesterol efflux, ABCA1-stablization, anti-oxidant and anti-inflammatory activity)” the entry was “mediated cholesterol efflux in an ABCA1 dependent manner”.

Staying with this data set, now noted: concentration dependence curves.
For “R3→Q: SEQ ID NO:5 with arginine 3 replaced by glutamine (EVQSKLEEWFAAFREFFEEFLARLKS; S1 amphipathic alpha-helix polypeptide core sequence selectively binds HDL, high-affinity ligand for ATP- binding cassette transporter A1 (ABCA1), ABCA1-lipid cholesterol efflux, ABCA1-stablization, anti-oxidant and anti-inflammatory activity)”, the “efficiency of ABCA1 cholesterol efflux (concentration dependence)” value is “high efficiency”. The same measure, in the same setting: then “R14→Q: SEQ ID NO:5 with arginine 14 replaced by glutamine (EVRSKLEEWFAAFQEFFEEFLARLKS; S1 amphipathic alpha-helix polypeptide core sequence selectively binds HDL, high-affinity ligand for ATP- binding cassette transporter A1 (ABCA1), ABCA1-lipid cholesterol efflux, ABCA1-stablization, anti-oxidant and anti-inflammatory activity)”, with “high efficiency”.

The data set is the same for the next values; noted with them: macrophages with vs without cAMP.
In the case of “EVRSKLEEWFAAFREFAEEFLARLKS ([dE][dV][dR][dS][dK][dL][dE][dE][dW][dF][dA][dA][dF][dR][dE][dF][dA][dE][dE][dF][dL][dA][dR][dL][dK][dS])”, the ABCA1-dependent cholesterol efflux entry is listed as “promoted ABCA1 cholesterol efflux”. In the case of “R3>L: SEQ ID NO:4 polypeptides with arginine at position 3 replaced by leucine (EVLSKLEEWFAAFREFAEEFLARLKS; ATI-5261 amphipathic alpha-helix polypeptide core sequence selectively binds HDL, high-affinity ligand for ATP-binding cassette transporter A1 (ABCA1), ABCA1-lipid cholesterol efflux, ABCA1-stablization, anti-oxidant and anti- inflammatory activity)”, the ABCA1-dependent cholesterol efflux entry was “relatively high-levels of cholesterol efflux”. In the case of “SKLRALFEEAFERFAAFWEELKSRVE ([dS][dK][dL][dR][dA][dL][dF][dE][dE][dA][dF][dE][dR][dF][dA][dA][dF][dW][dE][dE][dL][dK][dS][dR][dV][dE])”, the ABCA1-dependent cholesterol efflux result was “stimulate ABCA1 cholesterol efflux in a ABCA1-dependent manner”. “E8, 15>D: SEQ ID NO:5 with glutamic acid at positions 8 and 15 replaced with aspartic acid (EVRSKLEDWFAAFRDFFEEFLARLKS; S1 amphipathic alpha-helix polypeptide core sequence selectively binds HDL, high-affinity ligand for ATP- binding cassette transporter A1 (ABCA1), ABCA1-lipid cholesterol efflux, ABCA1-stablization, anti-oxidant and anti-inflammatory activity)”: the ABCA1-dependent cholesterol efflux entry was “retained high capacity to stimulate cholesterol efflux in an ABCA1-dependent manner”.

The data set is the same for the next values; noted with them: macrophages with vs without cAMP; listed as D-amino acid analog of SEQ ID NO:4.
With “EVRSKLEEWFAAFREFAEEFLARLKS ([dE][dV][dR][dS][dK][dL][dE][dE][dW][dF][dA][dA][dF][dR][dE][dF][dA][dE][dE][dF][dL][dA][dR][dL][dK][dS])”, the ABCA1-dependent cholesterol efflux result was “stimulate ABCA1 cholesterol efflux in a ABCA1-dependent manner”.

The same data set, now with this note: no cAMP.
Regarding “R3>L: SEQ ID NO:4 polypeptides with arginine at position 3 replaced by leucine (EVLSKLEEWFAAFREFAEEFLARLKS; ATI-5261 amphipathic alpha-helix polypeptide core sequence selectively binds HDL, high-affinity ligand for ATP-binding cassette transporter A1 (ABCA1), ABCA1-lipid cholesterol efflux, ABCA1-stablization, anti-oxidant and anti- inflammatory activity)”, the “cholesterol efflux from macrophages not induced for ABCA1 (non-specific)” value is given as “low-levels of cholesterol efflux”.
